# Measurements taken from US20220041738A1 (SAITAMA MEDICAL UNIVERSITY, published 2022).
# T1: human ALK2-R375P on cells (human, UniProt Q04771 21-509)
# T1 sequence: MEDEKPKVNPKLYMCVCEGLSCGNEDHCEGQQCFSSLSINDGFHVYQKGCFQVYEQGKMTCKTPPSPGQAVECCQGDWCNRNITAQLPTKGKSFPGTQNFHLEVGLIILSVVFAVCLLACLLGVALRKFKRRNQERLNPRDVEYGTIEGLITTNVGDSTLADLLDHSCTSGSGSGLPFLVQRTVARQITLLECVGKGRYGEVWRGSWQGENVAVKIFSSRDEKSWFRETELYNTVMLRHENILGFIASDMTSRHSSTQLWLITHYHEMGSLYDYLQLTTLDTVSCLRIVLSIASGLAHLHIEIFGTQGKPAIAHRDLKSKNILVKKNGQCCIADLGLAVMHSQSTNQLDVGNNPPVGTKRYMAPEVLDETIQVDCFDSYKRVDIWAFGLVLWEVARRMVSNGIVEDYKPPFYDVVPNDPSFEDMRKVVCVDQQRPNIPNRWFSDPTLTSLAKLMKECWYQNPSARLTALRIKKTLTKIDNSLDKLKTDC
# T2: human ALK2-Q207E on cells (human, UniProt Q04771 21-509)
# T2 sequence: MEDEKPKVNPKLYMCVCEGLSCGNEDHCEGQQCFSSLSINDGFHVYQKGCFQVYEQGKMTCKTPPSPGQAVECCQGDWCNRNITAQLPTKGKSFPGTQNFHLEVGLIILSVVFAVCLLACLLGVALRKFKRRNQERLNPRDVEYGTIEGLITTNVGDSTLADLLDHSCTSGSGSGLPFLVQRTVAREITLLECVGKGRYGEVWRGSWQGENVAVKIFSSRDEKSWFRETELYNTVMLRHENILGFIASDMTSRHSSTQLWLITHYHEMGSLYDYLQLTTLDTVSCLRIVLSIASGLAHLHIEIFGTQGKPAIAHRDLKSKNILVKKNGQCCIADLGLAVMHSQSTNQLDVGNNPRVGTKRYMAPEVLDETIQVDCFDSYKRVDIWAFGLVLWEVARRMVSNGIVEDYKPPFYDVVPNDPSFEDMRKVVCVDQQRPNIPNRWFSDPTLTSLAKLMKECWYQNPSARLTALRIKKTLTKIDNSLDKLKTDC
# T3: human ALK2-G325A on cells (human, UniProt Q04771 21-509)
# T3 sequence: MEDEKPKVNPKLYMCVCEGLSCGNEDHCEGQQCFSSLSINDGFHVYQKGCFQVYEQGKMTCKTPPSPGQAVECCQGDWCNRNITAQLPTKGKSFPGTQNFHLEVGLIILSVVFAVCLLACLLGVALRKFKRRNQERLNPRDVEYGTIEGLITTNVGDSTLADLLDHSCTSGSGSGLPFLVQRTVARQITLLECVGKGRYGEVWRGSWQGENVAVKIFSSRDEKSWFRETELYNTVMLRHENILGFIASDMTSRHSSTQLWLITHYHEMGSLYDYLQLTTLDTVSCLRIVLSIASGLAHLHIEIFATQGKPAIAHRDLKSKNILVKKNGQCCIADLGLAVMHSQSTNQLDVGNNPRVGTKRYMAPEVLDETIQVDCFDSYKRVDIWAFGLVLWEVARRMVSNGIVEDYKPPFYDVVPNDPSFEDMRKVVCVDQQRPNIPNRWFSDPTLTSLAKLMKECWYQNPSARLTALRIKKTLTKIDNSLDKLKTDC
# T4: human ALK2-L196P on cells (human, UniProt Q04771 21-509)
# T4 sequence: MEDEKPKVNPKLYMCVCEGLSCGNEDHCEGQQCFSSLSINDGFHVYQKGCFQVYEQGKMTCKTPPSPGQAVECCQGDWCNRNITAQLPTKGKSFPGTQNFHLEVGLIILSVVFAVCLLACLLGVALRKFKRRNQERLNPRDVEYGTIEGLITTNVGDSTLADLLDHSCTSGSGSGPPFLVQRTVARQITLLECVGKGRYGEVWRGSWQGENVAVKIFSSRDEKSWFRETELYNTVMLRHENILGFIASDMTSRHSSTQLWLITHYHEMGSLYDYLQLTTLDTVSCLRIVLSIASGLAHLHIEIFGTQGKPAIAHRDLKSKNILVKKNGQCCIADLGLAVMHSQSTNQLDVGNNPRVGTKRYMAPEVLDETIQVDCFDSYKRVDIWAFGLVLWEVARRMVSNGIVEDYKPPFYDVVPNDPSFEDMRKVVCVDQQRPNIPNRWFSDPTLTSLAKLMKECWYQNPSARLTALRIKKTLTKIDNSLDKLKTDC
# Tests used:
# Assay in all cases: immunofluorescence (legend of FIG. 4)
# [1] = target: T1, human ALK2-R375P on cells
# Protocol: (§1) Mouse C2C12 cells were seeded into a 96-well plate (Greiner Bio-One) at 0.5×10³ cells/well, and cultured in 15% FBS-containing DMEM medium overnight under the conditions of 5% CO₂ at 37° C. On the following day, the C2C12 cells were transfected with each of a wild-type human ALK2 cDNA integrated into pcDEF3; pcDEF3/human ALK2-L196P, pcDEF3/human ALK2-P197_F198delinsL, pcDEF3/human ALK2-R202I, pcDEF3/human ALK2-R206H, pcDEF3/human ALK2-Q207E, pcDEF3/human ALK2-R258S, pcDEF3/human ALK2-G325A, pcDEF3/human ALK2-G328E, pcDEF3/human ALK2-G328R, pcDEF3/human ALK2-G328W, pcDEF3/human ALK2-G356D, and pcDEF3/human ALK2-R375P, which are variants identified in FOP; and pcDEF3 as a control, using Lipofectamine 2000 (Invitrogen), and further cultured overnight.
# (§2) The C2C12 cells were fixed with 10% neutral formalin (Nacalai Tesque, Japan) for 20 minutes at room temperature, and then blocked with 10% goat normal serum for 30 minutes. After the blocking agent was removed, purified IgG diluted to 10 μg/mL with the blocking agent was added, and the cells were left for 1 hour at room temperature. After the cells were washed with PBS three times, Goat Alexa 594-conjugated anti-rat IgG (Invitrogen) diluted to 1:1000 with the blocking agent was added, and the cells were left for 1 hour at room temperature. After the cells were washed with PBS three times, the cells were fixed with 10% neutral formalin for 15 minutes at room temperature, and nuclear-stained with DAPI (LifeTechnologies). Fluorescent signals were analyzed with a fluorescence microscope BZ-9000 (Keyence).
# [2] = target: T2, human ALK2-Q207E on cells
# Protocol: as §1, §2
# [3] = target: T3, human ALK2-G325A on cells
# Protocol: as §1, §2
# [4] = target: T4, human ALK2-L196P on cells
# Protocol: as §1, §2
binding result [1],binding result [2],binding result [3],binding result [4],Binder
binds,binds,binds,binds,"rat anti-ALK2 monoclonal antibody A2-11E (antibody, V domains shown, Rat monoclonal IgG from a hybridoma; also called 11E2) VH: EVQLVETGGGLVQPGRSLKLSCVASGFTFSNYYMYWIRQAPGKGLEWISSINTDGGSTYYPDSVKGRFAISRDNAENTVYLQMNSLRSEDTATYYCAKSTPNIPLAYWGQGTLVTVSS VL: DIQMTQSPSLLSASVGDRVTLSCKASQNIYKYLNWFQQKLGEAPKLLIYYSNSLQTGIPSRFSGSGSGTDFTLTISSLQPEDVAIYFCFQYSSGPTFGPGTKLELKR"
binds,binds,binds,binds,"rat anti-ALK2 monoclonal antibody A2-15A (antibody, V domains shown, Rat monoclonal IgG from a hybridoma; also called 15A6) VH: EVQLVESGGGLVQPGRSLKLSCAASGFTFSHYYMAWVRQAPTKGLEWVASITNSGGSINYRDSVKGRFTISRDNAKSTLYLQMDSLRSEDTATYYCTREGGENYGGYPPFAYWGQGTLVTVSS VL: DIVLTQSPALAVSLGQRATISCRANQGVSLSRYNLMHWYQQKPGQKPKLLIYRSSNLASGIPARFSGSGSGTDFTLTINPVQADDIATYYCQQSRESPFTFGAGTKLELKR"
